Data: patent US20140322130A1 (published 2014)
Where no end group is shown, it is not given here.

Molecular target: T1, 15N-labelled recombinant EGFR287-302 peptide with methionine mutated to leucine (human, also: 15N-labelled, oxidized)
T1 construct: cleaved from an SH2 fusion with CNBr; also called 15N-labelled peptide
T1 peptide: CGADSYELEEDGVRKC
Test: NMR, 15N HSQC

B1: Fab fragment of mAb806 (Fab, V domains shown)
VH: DVQLQESGPSLVKPSQSLSLTCTVTGYSITSDFAWNWIRQFPGNKLEWMGYISYSGNTRYNPSLKSRISITRDTSKNQFFLQLNSVTIEDTATYYCVTAGRGFPYWGQGTLVTVSA
VL: DILMTQSPSSMSVSLGDTVSITCHSSQDINSNIGWLQQRPGKSFKGLIYHGTNLDDEVPSRFSGSGSGADYSLTISSLESEDFADYYCVQYAQFPWTFGGGTKLEIKR
notes: papain Fab of the intact mAb; also called Fab806
binding result: binds
